Source: the supplement of paper PMC10567573

B1: SOAT1 (parent)
chain: VYYIFERLCAPLFRNIKQEPFSAR
B2: TRIM55 (parent)
chain: YLPTRGGTTMASGGRFRCPSCRHE

Variants of: B1
Test: protein stability index of a GFP-peptide fusion (GPS, HEK-293T) (PSI 1-6); higher = more stable
Settings: c terminus: a fixed tail appended
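Note: lentivirally expressed fusions sorted by FACS into six bins by GFP to DsRed ratio, PSI derived from sequencing read proportions per bin multiplied by bin number.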

Protein stability index: each site, then its substitutions
Y2: A 2.52; M 2.83; G 1.89; C 1.3; S 1.87; T 2.97; I 3.75; P 1.44; N 1.76; H 2.26; Q 2.42; R 1.59; W 2.26; E 3.36; K 1.5; F 2.86
Y3: S 3.46; H 1.71; G 1.22; I 3; Q 3.86; E 1.5; N 2.11; D 1.45; M 1.77; C 3.23; V 3.21; K 2.5; P 2.12; A 2.26; W 2.93; F 2.75
F5: D 1.95; N 1.49; E 2.49; C 2.46; I 1.64; R 2.8; A 1.68; H 1.56; S 1.97; P 2.6; M 1.9; Y 1.81; V 3.45
I4: W 1.94; G 1.71; P 1.64; E 1.82; R 3.07; Q 2.65; K 2.81; Y 2.11; S 2.12; M 3.78; L 2.64; D 1.55
V1: A 1.74; M 2.28; S 2.13; H 1.41; P 1.32; D 1.44; F 2.17; L 2.5; C 1.17; I 1.82; Q 1.32; N 2.22; R 2.24; G 1.7; K 1.55; E 1.3
E6: A 2.38; D 3; C 3.08

Variants of: B2
Test: as above
Settings: c terminus: a fixed tail appended

Protein stability index, by site and new letter:
C18: Y 2.44; N 3.15; P 3.56; W 1.7; E 2.98; F 2.43; H 2.94; K 3.34; S 3.61; V 2.71; T 3.74; M 2.4; G 3.27; L 3.47
H23: M 1.52; C 3.34; V 2; S 3.03; P 3.14; K 3.39
S20: R 2.04; Y 1.46; H 2.13; D 1.98; W 1.12; G 1.92; T 2.48; M 1.04; Q 1.8; P 2.39; E 2.01; L 2.09; N 1.93; K 2.27
P19: Q 3.5; T 2.18; N 2.6; W 3.12; S 2.49; D 3.35; V 1.78; Y 2; R 2.78; I 1.38; E 2.01; M 1.61; G 2.34
R22: H 2.4; K 2.94; W 2.01; S 3.2; E 4.06; P 3.78; G 2.79; I 2.4; Y 2.07; A 2.59; F 2.38; D 2.9; Q 2.12; C 1.97; N 2.4; V 2.25
C21: E 4.03; T 3.14; I 3.09; M 2.51; H 3; N 3.96; W 2.21; S 3.03; D 3.62; Y 2.35; L 2.86; A 3.98
R17: T 2.96
E24: T 1.78; H 1.47; M 1.6; K 2.04; Q 3.06; G 1.06; D 1.93; Y 2.55; I 1.41; P 2.29; A 1.59; L 1.57; V 2.29; C 2.07; S 1.53
